# Assay results published in PMC4674748, “Identification of the Replication Origins from Cyanothece ATCC 51142 and Their Interactions with the DnaA Protein: From In Silico to In Vitro Studies”.
# T1: His6-DnaA (IV) (Cyanothece ATCC 51142, UniProt B1X0X6 331-455)
# T1 sequence: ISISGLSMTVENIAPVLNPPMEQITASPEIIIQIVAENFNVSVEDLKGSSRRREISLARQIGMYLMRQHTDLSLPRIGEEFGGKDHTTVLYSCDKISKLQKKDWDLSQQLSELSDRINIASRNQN
# B1: Cbox23 (2Box2B, 35 nt) (dsDNA)
# DNA 1: CCTTTAAATTTTTCCACAGTTTTTCCACAGCATTA
# DNA 2: TAATGCTGTGGAAAAACTGTGGAAAAATTTAAAGG
# Target: T1, His6-DnaA (IV)
# Assay: EMSA; 5-100 nM protein; 3 mM ATP, poly(dI-dC); better affinity than Lbox23; EMSA: 20 mM Hepes/KOH pH 8.0, 5 mM Mg acetate, 1 mM Na2EDTA, 4 mM DTT, 0.2% Triton X-100, 3 mM ATP, 5 mg/mL BSA, poly(dI-dC), 37 C 30 min; footprint: 25 C 30 min, 400 ng probe in 40 uL
# Details: protein: recombinant; tags: N-terminal His6 (pET-28a, BamHI/HindIII); blunt
binder,measurement,value
B1,binding result,binds
